{"source": "paper PMC7989959", "binders": {"B1": {"name": "Abeta aptamer (Tsukakoshi et al) (ssDNA)", "DNA": "GCCTGTGTTGGGGCGGGTGCG", "modifications": "5'-SH (thiol)"}}, "molecular_target": "alpha-synuclein (UniProt P37840 1-140)", "experiment": "electrochemical current sensor"}
{"binder": "B1", "values": [{"measurement": "binding result", "value": "no binding"}]}
